{
  "source": "paper PMC8546573",
  "key": {"[1]": {"target": "biotinylated soluble human PDGFRα (UniProt P16234)", "assay": "cell-based binding (staining of transfected 293E cells with soluble PDGFRα and 13H11 scFv)", "settings": "read off a plot"}, "[2]": {"target": "HCMV gHgLgO trimer with full-length gH on HEK293-6E cells, gO K359A (human cytomegalovirus, strain AD169 | human cytomegalovirus, strain TR) (UniProt P12824)", "assay": "flow cytometry on cells; HEK293-6E cells cotransfected with full-length gH, gL and gO (wt or mutant) stained with 4 μg/ml biotinylated PDGFRα in PBS with 0.5% BSA, room temperature, half an hour, then Alexa Fluor 647-streptavidin; PDGFRα staining set against staining by the gH antibody 13H11 and compared with wt"}, "[3]": {"target": "HCMV gHgLgO trimer with full-length gH on HEK293-6E cells, gO R214A (human cytomegalovirus, strain AD169 | human cytomegalovirus, strain TR) (UniProt P12824)", "assay": "flow cytometry on cells; HEK293-6E cells cotransfected with full-length gH, gL and gO (wt or mutant) stained with 4 μg/ml biotinylated PDGFRα in PBS with 0.5% BSA, room temperature, half an hour, then Alexa Fluor 647-streptavidin; PDGFRα staining set against staining by the gH antibody 13H11 and compared with wt"}, "[4]": {"target": "HCMV gHgLgO trimer with full-length gH on HEK293-6E cells, gO R236A (human cytomegalovirus, strain AD169 | human cytomegalovirus, strain TR) (UniProt P12824)", "assay": "flow cytometry on cells; HEK293-6E cells cotransfected with full-length gH, gL and gO (wt or mutant) stained with 4 μg/ml biotinylated PDGFRα in PBS with 0.5% BSA, room temperature, half an hour, then Alexa Fluor 647-streptavidin; PDGFRα staining set against staining by the gH antibody 13H11 and compared with wt"}, "[5]": {"target": "HCMV gHgLgO trimer with full-length gH on HEK293-6E cells, gO R236N/P238S (human cytomegalovirus, strain AD169 | human cytomegalovirus, strain TR) (UniProt P12824)", "assay": "flow cytometry on cells; HEK293-6E cells cotransfected with full-length gH, gL and gO (wt or mutant) stained with 4 μg/ml biotinylated PDGFRα in PBS with 0.5% BSA, room temperature, half an hour, then Alexa Fluor 647-streptavidin; PDGFRα staining set against staining by the gH antibody 13H11 and compared with wt"}, "[6]": {"target": "HCMV gHgLgO trimer with full-length gH on HEK293-6E cells, gO Y240A (human cytomegalovirus, strain AD169 | human cytomegalovirus, strain TR) (UniProt P12824)", "assay": "flow cytometry on cells; HEK293-6E cells cotransfected with full-length gH, gL and gO (wt or mutant) stained with 4 μg/ml biotinylated PDGFRα in PBS with 0.5% BSA, room temperature, half an hour, then Alexa Fluor 647-streptavidin; PDGFRα staining set against staining by the gH antibody 13H11 and compared with wt"}},
  "data": [
    {"substance": "HCMV gHgLgO trimer with full-length gH on the surface of HEK293-6E cells, gO wild type (from UniProt P12824;P16832) gO:E346A", "values": [
      {"measurement": "other: ratio of PDGFRα/13H11 binding", "setting": "[1]", "result": 1.2}
    ]},
    {"substance": "HCMV gHgLgO trimer with full-length gH on the surface of HEK293-6E cells, gO wild type (from UniProt P12824;P16832) gO:F113A", "values": [
      {"measurement": "other: ratio of PDGFRα/13H11 binding", "setting": "[1]", "result": 0.75}
    ]},
    {"substance": "HCMV gHgLgO trimer with full-length gH on the surface of HEK293-6E cells, gO wild type (from UniProt P12824;P16832) gO:F113N", "values": [
      {"measurement": "other: ratio of PDGFRα/13H11 binding", "setting": "[1]", "result": 0.73}
    ]},
    {"substance": "HCMV gHgLgO trimer with full-length gH on the surface of HEK293-6E cells, gO wild type (from UniProt P12824;P16832) gO:F138A", "values": [
      {"measurement": "other: ratio of PDGFRα/13H11 binding", "setting": "[1]", "result": 0.82}
    ]},
    {"substance": "HCMV gHgLgO trimer with full-length gH on the surface of HEK293-6E cells, gO wild type (from UniProt P12824;P16832) gO:K123A", "values": [
      {"measurement": "other: ratio of PDGFRα/13H11 binding", "setting": "[1]", "result": 0.87}
    ]},
    {"substance": "HCMV gHgLgO trimer with full-length gH on the surface of HEK293-6E cells, gO wild type (from UniProt P12824;P16832) gO:K194A", "values": [
      {"measurement": "other: ratio of PDGFRα/13H11 binding", "setting": "[1]", "result": 1.1}
    ]},
    {"substance": "HCMV gHgLgO trimer with full-length gH on the surface of HEK293-6E cells, gO wild type (from UniProt P12824;P16832) gO:P343A", "values": [
      {"measurement": "other: ratio of PDGFRα/13H11 binding", "setting": "[1]", "result": 1.2}
    ]},
    {"substance": "HCMV gHgLgO trimer with full-length gH on the surface of HEK293-6E cells, gO wild type (from UniProt P12824;P16832) gO:Q117A", "values": [
      {"measurement": "other: ratio of PDGFRα/13H11 binding", "setting": "[1]", "result": 0.81}
    ]},
    {"substance": "HCMV gHgLgO trimer with full-length gH on the surface of HEK293-6E cells, gO wild type (from UniProt P12824;P16832) gO:R119A", "values": [
      {"measurement": "other: ratio of PDGFRα/13H11 binding", "setting": "[1]", "result": 0.9}
    ]},
    {"substance": "HCMV gHgLgO trimer with full-length gH on the surface of HEK293-6E cells, gO wild type (from UniProt P12824;P16832) gO:R232A", "values": [
      {"measurement": "other: ratio of PDGFRα/13H11 binding", "setting": "[1]", "result": 0.96}
    ]},
    {"substance": "HCMV gHgLgO trimer with full-length gH on the surface of HEK293-6E cells, gO wild type (from UniProt P12824;P16832) gO:R239A", "values": [
      {"measurement": "other: ratio of PDGFRα/13H11 binding", "setting": "[1]", "result": 1.1}
    ]},
    {"substance": "HCMV gHgLgO trimer with full-length gH on the surface of HEK293-6E cells, gO wild type (from UniProt P12824;P16832) gO:R338A", "values": [
      {"measurement": "other: ratio of PDGFRα/13H11 binding", "setting": "[1]", "result": 0.95}
    ]},
    {"substance": "HCMV gHgLgO trimer with full-length gH on the surface of HEK293-6E cells, gO wild type (from UniProt P12824;P16832) gO:R349A", "values": [
      {"measurement": "other: ratio of PDGFRα/13H11 binding", "setting": "[1]", "result": 1}
    ]},
    {"substance": "HCMV gHgLgO trimer with full-length gH on the surface of HEK293-6E cells, gO wild type (from UniProt P12824;P16832) gO:T116A", "values": [
      {"measurement": "other: ratio of PDGFRα/13H11 binding", "setting": "[1]", "result": 0.62}
    ]},
    {"substance": "HCMV gHgLgO trimer with full-length gH on the surface of HEK293-6E cells, gO wild type (from UniProt P12824;P16832) gO:Y371A", "values": [
      {"measurement": "other: ratio of PDGFRα/13H11 binding", "setting": "[1]", "result": 1.1}
    ]},
    {"substance": "biotinylated soluble human PDGFRα (from UniProt P16234 24-528) (receptor)", "values": [
      {"measurement": "percent of wild-type binding", "setting": "[2]", "result": "< 33 % of wt"},
      {"measurement": "percent of wild-type binding", "setting": "[3]", "result": "< 33 % of wt"},
      {"measurement": "percent of wild-type binding", "setting": "[4]", "result": "< 33 % of wt"},
      {"measurement": "percent of wild-type binding", "setting": "[5]", "result": "50 % of wt"},
      {"measurement": "percent of wild-type binding", "setting": "[6]", "result": "< 33 % of wt"}
    ]}
  ]
}
